Here are results for 3 molecules from patent US20210363261A1 (DRAGONFLY THERAPEUTICS, published 2021).

B1: corresponding monoclonal antibody having the same FAP binding site as FAP-multi-specific BP Sibrotuzumab (antibody, V domains shown)
VH: QVQLVQSGAEVKKPGASVKVSCKTSRYTFTEYTIHWVRQAPGQRLEWIGGINPNNGIPNYNQKFKGRVTITVDTSASTAYMELSSLRSEDTAVYYCARRRIAYGYDEGHAMDYWGQGTLVTVSS
VL: DIVMTQSPDSLAVSLGERATINCKSSQSLLYSRNQKNYLAWYQQKPGQPPKLLIFWASTRESGVPDRFSGSGFGTDFTLTISSLQAEDVAVYYCQQYFSYPLTFGQGTKVEIK
notes: also called FAP-mAb; anti-FAP mAb
B2: corresponding monoclonal antibody having the same FAP binding site as FAP-multi-specific BP 4G8 (antibody, V domains shown)
VH: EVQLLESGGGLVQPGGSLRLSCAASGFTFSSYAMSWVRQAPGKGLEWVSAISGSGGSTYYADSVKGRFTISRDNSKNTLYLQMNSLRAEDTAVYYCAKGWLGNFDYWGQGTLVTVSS
VL: EIVLTQSPGTLSLSPGERATLSCRASQSVSRSYLAWYQQKPGQAPRLLIIGASTRATGIPDRFSGSGSGTDFTLTISRLEPEDFAVYYCQQGQVIPPTFGQGTKVEIK
notes: as for B1
B3: corresponding monoclonal antibody having the same FAP binding site as FAP-multi-specific BP 29B11 (antibody, V domains shown)
VH: EVQLLESGGGLVQPGGSLRLSCAASGFTFSSYAMSWVRQAPGKGLEWVSAIIGSGGITYYADSVKGRFTISRDNSKNTLYLQMNSLRAEDTAVYYCAKGWFGGFNYWGQGTLVTVSS
VL: EIVLTQSPGTLSLSPGERATLSCRASQSVTSSYLAWYQQKPGQAPRLLINVGSRRATGIPDRFSGSGSGTDFTLTISRLEPEDFAVYYCQQGIMLPPTFGQGTKVEIK
notes: as for B1

This test has as its target T1, fibroblast activation protein (FAP) expressed on human cell lines LL86, COLO 829 and U-87 MG (human, UniProt Q12884 1-760).
T1 construct: the assays used endogenous FAP on human cell lines
The test can be described thus: flow cytometry on LL86, COLO 829 and U-87 MG cells, anti-human IgG detection, MFI fold over background. As to the method:
Multi-specific binding proteins or corresponding monoclonal antibodies (mAb) having the same FAP binding site were diluted and incubated with the cells. Binding was detected using fluorophore-conjugated anti-human IgG secondary antibody. Cells were analyzed by flow cytometry and express as mean fluorescence intensity (MFI) normalized to human recombinant IgG1 stained controls to obtain fold over background (FOB) values.
For orientation: In flow cytometry, cells or beads pass a laser one at a time.
Take B1: the binding result is on record as “binds”. The value for B2 was “binds”.

Regarding B3, the binding result is listed as “binds”.
